Source: US20200055896A1, “SUBSTRATES RECOGNIZED BY FIBROBLAST ACTIVATION PROTEIN (FAP) AND METHODS OF USING THE SAME” (GENENTECH, INC., priority 2017, published 2020)
No end group written: not given here.

Tests used:
Type in all cases: biochemical
recombinant mouse FAP = target: T1, recombinant mouse FAP (Mus musculus, UniProt P97321); experiment: FRET-quench assay: probe cleavage by recombinant mouse FAP; settings: 1 nM recombinant mouse FAP; 3 μM peptide
T1 construct: (residues L26-D760 and L26-D761, respectively); octa-His (N); made in house; host or cells: transiently transfected CHO cells (conditioned media)
T1 sequence (P97321 26-761): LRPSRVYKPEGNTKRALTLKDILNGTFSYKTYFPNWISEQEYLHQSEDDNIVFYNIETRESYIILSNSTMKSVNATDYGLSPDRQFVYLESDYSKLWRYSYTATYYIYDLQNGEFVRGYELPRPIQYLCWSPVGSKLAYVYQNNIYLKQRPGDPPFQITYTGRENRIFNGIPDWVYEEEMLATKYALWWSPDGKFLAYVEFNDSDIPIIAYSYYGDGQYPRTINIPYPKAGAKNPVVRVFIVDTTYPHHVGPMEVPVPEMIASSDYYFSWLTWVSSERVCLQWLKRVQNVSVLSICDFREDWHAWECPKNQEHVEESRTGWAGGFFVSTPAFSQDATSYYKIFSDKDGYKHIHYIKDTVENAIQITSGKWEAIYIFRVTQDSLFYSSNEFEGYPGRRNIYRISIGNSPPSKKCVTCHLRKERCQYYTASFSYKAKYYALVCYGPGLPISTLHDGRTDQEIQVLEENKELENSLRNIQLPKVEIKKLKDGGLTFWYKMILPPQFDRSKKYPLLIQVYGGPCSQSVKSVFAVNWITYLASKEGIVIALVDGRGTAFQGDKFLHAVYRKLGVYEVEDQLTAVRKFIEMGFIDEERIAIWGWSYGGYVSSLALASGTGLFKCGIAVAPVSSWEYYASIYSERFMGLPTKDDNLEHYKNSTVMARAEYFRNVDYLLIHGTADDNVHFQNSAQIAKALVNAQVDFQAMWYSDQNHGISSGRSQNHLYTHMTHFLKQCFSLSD
Text: (§1) Human prolyl oligopeptidase (PREP, 4308-SE), DPPIV (1180-SE), DPP9 (5419-SE), and DPPII/DPP7 (3438-SE) proteins were purchased from R&D Systems. Human DPP8 (BML-SE527) protein was purchased from Enzo Life Sciences. N-terminal octa-His-tagged human and mouse FAP proteins containing the extracellular domain (residues L26-D760 and L26-D761, respectively) were purified from the conditioned media of transiently-transfected CHO cells, by immobilized metal affinity chromatography (IMAC), followed by size exclusion chromatography (SEC).
(§2) Peptides of the region flanking the C-terminal human FGF21 cleavage site (VGPSQG) or a variant with D-alanine at P2 (VaPSQG) were synthesized (Anaspec, Inc.), containing an amine-terminal donor (HyLite Fluor 488 or Cy5.5 for aP NIRF) and a dark quencher-acceptor (QXL 520 or QSY21 for aP NIRF) conjugated to a supplementary C-terminal lysine. ANPFAP (Bioconjugate Chem 23:1704-11) and aP NIRF were synthesized by CPC Scientific (Sunnyvale, Calif.). Assays were conducted at 37° C. in 50 mM HEPES (pH 7.2), 150 mM NaCl, 1 mM EDTA, 0.1 mg/ml BSA. The excitation/emission wavelengths of cleaved peptide are 490/520 nm or 675/695 nm for ANPFAP and aP NIRF. Fluorescence was monitored on a Tecan M1000 Pro plate reader in kinetic mode. […]

[1] = test system: human S9 and S28 peptidases; experiment: aP cleavage by a panel of recombinant human prolyl peptidases; settings: each recombinant peptidase at 2.5 μg/ml
Text: as §1, §2

serum FAP = target: T2, serum FAP (Homo sapiens, UniProt Q12884); experiment: aP probe fluorescence assay of FAP activity in human serum versus FAP ELISA
T2 construct: the extracellular domain encoding the active enzyme can be shed from the cell surface; tissue Discovery Life Sciences, Inc. (part of the samples); host or cells: human serum (healthy donors, cirrhosis patients)
T2 sequence (Q12884 24-760 limits assumed): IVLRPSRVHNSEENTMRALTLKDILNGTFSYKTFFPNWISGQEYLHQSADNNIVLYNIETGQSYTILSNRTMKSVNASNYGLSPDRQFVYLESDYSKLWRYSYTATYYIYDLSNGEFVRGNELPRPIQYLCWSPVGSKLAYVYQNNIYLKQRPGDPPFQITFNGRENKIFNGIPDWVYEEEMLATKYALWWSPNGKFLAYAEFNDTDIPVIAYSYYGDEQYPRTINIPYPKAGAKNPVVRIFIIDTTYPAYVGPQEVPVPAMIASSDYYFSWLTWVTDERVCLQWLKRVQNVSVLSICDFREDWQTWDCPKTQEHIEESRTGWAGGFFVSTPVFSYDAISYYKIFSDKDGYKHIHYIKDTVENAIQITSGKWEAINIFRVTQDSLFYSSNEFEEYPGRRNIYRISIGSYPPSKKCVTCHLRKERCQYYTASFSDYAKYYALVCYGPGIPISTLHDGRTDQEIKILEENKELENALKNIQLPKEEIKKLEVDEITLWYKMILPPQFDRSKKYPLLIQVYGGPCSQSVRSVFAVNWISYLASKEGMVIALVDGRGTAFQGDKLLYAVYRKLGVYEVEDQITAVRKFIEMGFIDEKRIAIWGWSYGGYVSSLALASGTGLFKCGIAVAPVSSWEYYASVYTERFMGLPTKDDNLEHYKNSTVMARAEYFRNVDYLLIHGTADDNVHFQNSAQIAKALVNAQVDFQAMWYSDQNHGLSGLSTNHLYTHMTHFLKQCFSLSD
Procedure: Mouse plasma samples were prepared in K3-EDTA MiniCollect tubes (Greiner Bio-One, 450475) and frozen immediately at −80° C. prior to analysis. Human serum samples were obtained from healthy donors or purchased from Discovery Life Sciences, Inc. (Los Osos, Calif.).
Serum FAP concentration was measured using the human FAP DuoSet ELISA kit (R&D Systems, DY3715), according to the manufacturer's protocol.
Peptides of the region flanking the C-terminal human FGF21 cleavage site (VGPSQG) or a variant with D-alanine at P2 (VaPSQG) were synthesized (Anaspec, Inc.), containing an amine-terminal donor (HyLite Fluor 488 or Cy5.5 for aP NIRF) and a dark quencher-acceptor (QXL 520 or QSY21 for aP NIRF) conjugated to a supplementary C-terminal lysine. ANPFAP (Bioconjugate Chem 23:1704-11) and aP NIRF were synthesized by CPC Scientific (Sunnyvale, Calif.). Assays were conducted at 37° C. in 50 mM HEPES (pH 7.2), 150 mM NaCl, 1 mM EDTA, 0.1 mg/ml BSA. The excitation/emission wavelengths of cleaved peptide are 490/520 nm or 675/695 nm for ANPFAP and aP NIRF. Fluorescence was monitored on a Tecan M1000 Pro plate reader in kinetic mode. Except where indicated otherwise, measurements of serum or plasma FAP activity were performed with the peptide substrate concentration at 6 μM and a 10-fold dilution of serum or plasma in assay buffer.

Row | Substance | cleavage by recombinant mouse FAP (recombinant mouse FAP) | cleavage by human S9 and S28 peptidases [1] | lowest FAP level detected with the activity assay (serum FAP)
1 | GP probe: human FGF21 cleavage-site peptide VGPSQG with amine-terminal HyLite Fluor 488 donor and QXL 520 quencher on supplementary C-terminal lysine ({HyLite Fluor 488}-VGPSQGK(QXL 520)) | cleaved |  | 
2 | aP probe: FGF21-based peptide VaPSQG (D-alanine at P2) with HyLite Fluor 488 donor and QXL 520 quencher |  | did not exhibit an ability to cleave | 63 ng/mL
